Target: histones
Test: ELISA

- Kd: 6.6 nM
B1: murine IMMU-H4 antibody (parental murine anti-histone H4 antibody) (antibody, V domains shown)
VH: QVQLQQSGAELVRPGASVKLSCTASGFNIKDDYLHWVKQRPEQGLEWIGWIDPENGDTEYASKFQGKATITADTSSNTAYLQLSSLTSEDTAVYYCSSPLVHLRTFAYWGQGTLVTVS
VL: DIQLTQSPASLAVSLGQRATISCRASESVDSYDNSLHWFQQKPGQPPKLLIYLASNLESGVPARFSGSGSRTDFTLTIDPVEADDAATYYCQQNNEDPWTFGGGTKLEIKR

— patent publication US20160130333A1
